The data set concerns the molecule itself. Put plainly: native gel or EMSA; blue native PAGE (Tris-glycine buffer, 5%-20% polyacrylamide gels), 9 μg of the soluble fraction of transfected 293FT cells per lane, immunoblot with polyclonal anti-human DPD antibody; monomer to dimer. For orientation: Mobility shift assays separate free from complexed probe on a gel.

The values below come from PMC9242541, “Importance of Rare DPYD Genetic Polymorphisms for 5-Fluorouracil Therapy in the Japanese Population” (Frontiers in Pharmacology, 2022).

Substitutions are numbered along the chain they refer to. Numbers in names are those of the source.

B1: wild-type dihydropyrimidine dehydrogenase (DPD) (enzyme, human, UniProt Q12882 4-1025, looked up)
chain: VLSKDSADIESILALNPRTQTHATLCSTSAKKLDKKHWKRNPDKNCFNCEKLENNFDDIKHTTLGERGALREAMRCLKCADAPCQKSCPTNLDIKSFITSIANKNYYGAAKMIFSDNPLGLTCGMVCPTSDLCVGGCNLYATEEGPINIGGLQQFATEVFKAMSIPQIRNPSLPPPEKMSEAYSAKIALFGAGPASISCASFLARLGYSDITIFEKQEYVGGLSTSEIPQFRLPYDVVNFEIELMKDLGVKIICGKSLSVNEMTLSTLKEKGYKAAFIGIGLPEPNKDAIFQGLTQDQGFYTSKDFLPLVAKGSKAGMCACHSPLPSIRGVVIVLGAGDTAFDCATSALRCGARRVFIVFRKGFVNIRAVPEEMELAKEEKCEFLPFLSPRKVIVKGGRIVAMQFVRTEQDETGKWNEDEDQMVHLKADVVISAFGSVLSDPKVKEALSPIKFNRWGLPEVDPETMQTSEAWVFAGGDVVGLANTTVESVNDGKQASWYIHKYVQSQYGASVSAKPELPLFYTPIDLVDISVEMAGLKFINPFGLASATPATSTSMIRRAFEAGWGFALTKTFSLDKDIVTNVSPRIIRGTTSGPMYGPGQSSFLNIELISEKTAAYWCQSVTELKADFPDNIVIASIMCSYNKNDWTELAKKSEDSGADALELNLSCPHGMGERGMGLACGQDPELVRNICRWVRQAVQIPFFAKLTPNVTDIVSIARAAKEGGANGVTATNTVSGLMGLKSDGTPWPAVGIAKRTTYGGVSGTAIRPIALRAVTSIARALPGFPILATGGIDSAESGLQFLHSGASVLQVCSAIQNQDFTVIEDYCTGLKALLYLKSIEELQDWDGQSPATVSHQKGKPVPRIAELMDKKLPSFGPYLEQRKKIIAENKIRLKEQNVAFSPLKRNCFIPKRPIPTIKDVIGKALQYLGTFGELSNVEQVVAMIDEEMCINCGKCYMTCNDSGYQAIQFDPETHLPTITDTCTGCTLCLSVCPIVDCIKMVSRTTPYEPKRGVPLSVNPVC
notes: dihydropyrimidine dehydrogenase (DPD), human, wild-type DPYD cDNA; the open-reading frame encodes 1,025 amino acid residues; no tag is stated; also called wild-type DPD; source: 293FT cells, transfected (pcDNA3.4), soluble fraction
For B1, the stoichiometry N (in general, the number of molecules, sites or subunits per partner or assembly) was found to be 2.

B2: DPD variant M166V (enzyme, human, UniProt Q12882 4-1025, looked up)
chain: B1 chain with M163V
notes: dihydropyrimidine dehydrogenase (DPD), human, DPYD cDNA with a variant found in Japanese individuals; made by site-directed mutagenesis of the wild-type construct; also called 496A > G; source: 293FT cells, transfected (pcDNA3.4), soluble fraction
B2: the “stoichiometry N” value turned out to be 2.

B3: DPD variant K384E (enzyme, human, UniProt Q12882 4-1025, looked up)
chain: B1 chain with K381E
notes: dihydropyrimidine dehydrogenase (DPD), human, DPYD cDNA with a variant found in Japanese individuals; made by site-directed mutagenesis of the wild-type construct; also called 1150A > G; source: 293FT cells, transfected (pcDNA3.4), soluble fraction
For the protein B3, the “stoichiometry N” value is 2.

B4: DPD variant T768K (enzyme, human, UniProt Q12882 4-1025, looked up)
chain: B1 chain with T765K
notes: dihydropyrimidine dehydrogenase (DPD), human, DPYD cDNA with a variant found in Japanese individuals; made by site-directed mutagenesis of the wild-type construct; also called 2303C > A; source: 293FT cells, transfected (pcDNA3.4), soluble fraction
For B4, the “stoichiometry N” value is 2.

B5: DPD variant N151D (enzyme, human, UniProt Q12882 4-1025, looked up)
chain: B1 chain with N148D
notes: dihydropyrimidine dehydrogenase (DPD), human, DPYD cDNA with a variant found in Japanese individuals; made by site-directed mutagenesis of the wild-type construct; also called 451A > G; source: 293FT cells, transfected (pcDNA3.4), soluble fraction
As to B5, the “stoichiometry N” value was found to be 2.

B6: DPD variant S939N (enzyme, human, UniProt Q12882 4-1025, looked up)
chain: B1 chain with S936N
notes: dihydropyrimidine dehydrogenase (DPD), human, DPYD cDNA with a variant found in Japanese individuals; made by site-directed mutagenesis of the wild-type construct; also called 2816G > A; source: 293FT cells, transfected (pcDNA3.4), soluble fraction
In the case of B6, the “stoichiometry N” value turned out to be 2.

B7: DPD variant R592W (enzyme, human, UniProt Q12882 4-1025, looked up)
chain: B1 chain with R589W
notes: dihydropyrimidine dehydrogenase (DPD), human, DPYD cDNA with a variant found in Japanese individuals; made by site-directed mutagenesis of the wild-type construct; also called 1774C > T; source: 293FT cells, transfected (pcDNA3.4), soluble fraction
B7: the “stoichiometry N” value amounted to 2.

B8: DPD variant F438V (enzyme, human, UniProt Q12882 4-1025, looked up)
chain: B1 chain with F435V
notes: dihydropyrimidine dehydrogenase (DPD), human, DPYD cDNA with a variant found in Japanese individuals; made by site-directed mutagenesis of the wild-type construct; also called 1312T > G; source: 293FT cells, transfected (pcDNA3.4), soluble fraction
For the protein B8, the “stoichiometry N” value worked out at 2.

B9: DPD variant Y304H (enzyme, human, UniProt Q12882 4-1025, looked up)
chain: B1 chain with Y301H
notes: dihydropyrimidine dehydrogenase (DPD), human, DPYD cDNA with a variant found in Japanese individuals; made by site-directed mutagenesis of the wild-type construct; also called 910T > C; source: 293FT cells, transfected (pcDNA3.4), soluble fraction
On to B9, for which the “stoichiometry N” value was 2.

B10: DPD variant Y109N (enzyme, human, UniProt Q12882 4-1025, looked up)
chain: B1 chain with Y106N
notes: dihydropyrimidine dehydrogenase (DPD), human, DPYD cDNA with a variant found in Japanese individuals; made by site-directed mutagenesis of the wild-type construct; also called 325T > A; source: 293FT cells, transfected (pcDNA3.4), soluble fraction
As to B10, the “stoichiometry N” value is 2.

B11: DPD variant M77V (enzyme, human, UniProt Q12882 4-1025, looked up)
chain: B1 chain with M74V
notes: dihydropyrimidine dehydrogenase (DPD), human, DPYD cDNA with a variant found in Japanese individuals; made by site-directed mutagenesis of the wild-type construct; also called 229A > G; source: 293FT cells, transfected (pcDNA3.4), soluble fraction
As to B11, the “stoichiometry N” value was 2.

B12: DPD variant Q604L (enzyme, human, UniProt Q12882 4-1025, looked up)
chain: B1 chain with Q601L
notes: dihydropyrimidine dehydrogenase (DPD), human, DPYD cDNA with a variant found in Japanese individuals; made by site-directed mutagenesis of the wild-type construct; also called 1811A > T; source: 293FT cells, transfected (pcDNA3.4), soluble fraction
Regarding B12, the “stoichiometry N” value came out at 2.

B13: DPD variant G748D (enzyme, human, UniProt Q12882 4-1025, looked up)
chain: B1 chain with G745D
notes: dihydropyrimidine dehydrogenase (DPD), human, DPYD cDNA with a variant found in Japanese individuals; made by site-directed mutagenesis of the wild-type construct; also called 2243G > A; source: 293FT cells, transfected (pcDNA3.4), soluble fraction
B13: the “stoichiometry N” value stood at 2.

B14: DPD variant V826M (enzyme, human, UniProt Q12882 4-1025, looked up)
chain: B1 chain with V823M
notes: dihydropyrimidine dehydrogenase (DPD), human, DPYD cDNA with a variant found in Japanese individuals; made by site-directed mutagenesis of the wild-type construct; also called 2476G > A; source: 293FT cells, transfected (pcDNA3.4), soluble fraction
Turning to B14, the “stoichiometry N” value is 2.

B15: DPD variant I843T (enzyme, human, UniProt Q12882 4-1025, looked up)
chain: B1 chain with I840T
notes: dihydropyrimidine dehydrogenase (DPD), human, DPYD cDNA with a variant found in Japanese individuals; made by site-directed mutagenesis of the wild-type construct; also called 2528T > C; source: 293FT cells, transfected (pcDNA3.4), soluble fraction
Turning to B15, the “stoichiometry N” value amounted to 2.

B16: DPD variant A380V (enzyme, human, UniProt Q12882 4-1025, looked up)
chain: B1 chain with A377V
notes: dihydropyrimidine dehydrogenase (DPD), human, DPYD cDNA with a variant found in Japanese individuals; made by site-directed mutagenesis of the wild-type construct; also called 1139C > T; source: 293FT cells, transfected (pcDNA3.4), soluble fraction
For B16, the “stoichiometry N” value amounted to 2.

B17: DPD risk variant I560S (DPYD*13) (enzyme, human, UniProt Q12882 4-1025, looked up)
chain: B1 chain with I557S
notes: dihydropyrimidine dehydrogenase (DPD), human, DPYD cDNA with a risk variant reported in Caucasians; made by site-directed mutagenesis of the wild-type construct; also called c.1679T>G; 1679T > G (*13); source: 293FT cells, transfected (pcDNA3.4), soluble fraction
Regarding B17, the “stoichiometry N” value turned out to be 2.

B18: DPD variant H25R (enzyme, human, UniProt Q12882 4-1025, looked up)
chain: B1 chain with H22R
notes: dihydropyrimidine dehydrogenase (DPD), human, DPYD cDNA with a variant found in Japanese individuals; made by site-directed mutagenesis of the wild-type construct; also called 74A > G; source: 293FT cells, transfected (pcDNA3.4), soluble fraction
As for B18, the “stoichiometry N” value came out at 2.

B19: DPD variant I245F (enzyme, human, UniProt Q12882 4-1025, looked up)
chain: B1 chain with I242F
notes: dihydropyrimidine dehydrogenase (DPD), human, DPYD cDNA with a variant found in Japanese individuals; made by site-directed mutagenesis of the wild-type construct; also called 733A > T; source: 293FT cells, transfected (pcDNA3.4), soluble fraction
Turning to B19, the “stoichiometry N” value worked out at 2.

B20: DPD variant V313L (enzyme, human, UniProt Q12882 4-1025, looked up)
chain: B1 chain with V310L
notes: dihydropyrimidine dehydrogenase (DPD), human, DPYD cDNA with a variant found in Japanese individuals; made by site-directed mutagenesis of the wild-type construct; also called 937G > T; source: 293FT cells, transfected (pcDNA3.4), soluble fraction
B20: the “stoichiometry N” value stood at 2.

B21: DPD variant I528V (enzyme, human, UniProt Q12882 4-1025, looked up)
chain: B1 chain with I525V
notes: dihydropyrimidine dehydrogenase (DPD), human, DPYD cDNA with a variant found in Japanese individuals; made by site-directed mutagenesis of the wild-type construct; also called 1582A > G; source: 293FT cells, transfected (pcDNA3.4), soluble fraction
As to B21, the “stoichiometry N” value came out at 2.
